Source: patent publication US20240409645A1 (DUALYX, published 2024)

T1: human IL-2 receptor (IL-2Rα/IL-2Rβ/γc) (human, UniProt P01589 22-272; P14784 27-551; P31785 23-369)
T1 sequence 1: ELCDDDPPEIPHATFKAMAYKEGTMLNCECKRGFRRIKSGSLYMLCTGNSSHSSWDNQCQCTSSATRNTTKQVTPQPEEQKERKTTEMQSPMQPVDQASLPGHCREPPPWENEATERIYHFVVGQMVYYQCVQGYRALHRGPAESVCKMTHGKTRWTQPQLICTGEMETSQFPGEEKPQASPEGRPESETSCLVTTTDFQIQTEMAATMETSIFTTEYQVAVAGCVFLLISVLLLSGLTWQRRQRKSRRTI
T1 sequence 2: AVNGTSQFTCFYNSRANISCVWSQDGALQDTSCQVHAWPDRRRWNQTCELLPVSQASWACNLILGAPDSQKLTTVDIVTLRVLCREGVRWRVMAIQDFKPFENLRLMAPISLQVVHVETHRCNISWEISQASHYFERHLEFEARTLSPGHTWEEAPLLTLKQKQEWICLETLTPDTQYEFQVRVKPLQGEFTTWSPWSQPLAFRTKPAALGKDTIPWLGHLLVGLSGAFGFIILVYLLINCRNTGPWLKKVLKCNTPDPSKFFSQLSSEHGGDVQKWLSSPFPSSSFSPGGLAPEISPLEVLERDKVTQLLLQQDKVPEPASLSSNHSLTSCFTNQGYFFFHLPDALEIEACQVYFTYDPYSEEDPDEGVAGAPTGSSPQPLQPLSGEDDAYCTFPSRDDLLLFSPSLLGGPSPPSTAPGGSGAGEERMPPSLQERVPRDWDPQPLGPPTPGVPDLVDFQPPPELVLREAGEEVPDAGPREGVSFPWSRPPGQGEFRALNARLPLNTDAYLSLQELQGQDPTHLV
T1 sequence 3: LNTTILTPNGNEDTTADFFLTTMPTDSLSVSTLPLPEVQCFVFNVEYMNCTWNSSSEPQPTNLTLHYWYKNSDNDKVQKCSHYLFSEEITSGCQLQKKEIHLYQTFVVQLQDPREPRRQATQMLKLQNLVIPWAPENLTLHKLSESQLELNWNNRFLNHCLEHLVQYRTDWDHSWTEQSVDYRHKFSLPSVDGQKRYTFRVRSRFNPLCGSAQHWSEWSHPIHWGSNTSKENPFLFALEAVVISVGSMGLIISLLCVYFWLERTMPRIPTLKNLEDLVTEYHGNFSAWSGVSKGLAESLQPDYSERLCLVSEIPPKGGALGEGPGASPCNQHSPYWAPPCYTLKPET


Target: T1, human IL-2 receptor (IL-2Rα/IL-2Rβ/γc)
Experiment: cell-based or functional assay

Binder | EC50 (nM) pSTAT5, NK, human PBMCs [nM] | EC50 (nM) pSTAT5, Treg, human PBMCs | Fold Max signal (% pSTAT5+) Treg/NK [fold] | Max signal (% pSTAT5+), NK [% pSTAT5+] | Max signal (% pSTAT5+), Treg [% pSTAT5+] | fold EC50 NK/Treg [fold]
DC00059 (other) chain 1: QVQLVESGGGLVQPGGSLRLSCATSGFTFRNNFMSWVRQAPGKGLEWVSTISYGGESTTYAESVKGRFTISRDNAKNTLYLQMNNLKPEDTAVYYCAKATSYDSIRSGSRGQGTQVTVSSGGGGSGGGGSGGGGSEVQLVESGGGLVQTGGSLRLSCAASGGTFSRDAMAWFRQVPGKEREFVALISWSGATTNYADSVKGRFAISRDNGKNTVYLQMNRLKPADTAIYYCAADRRPMGSRSYFEPTEYDDWGQGTQVTVSSGGGGSGGGGSGGGGSDKTHTCPPCPAPEAAGGPSVFLFPPKPKDTLMISRTPEVTCVVVDVSHEDPEVKFNWYVDGVEVHNAKTKPREEQYNSTYRVVSVLTVLHQDWLNGKEYKCKVSNKALGAPIEKTISKAKGQPREPQVYTLPPSRDELTKNQVSLTCLVKGFYPSDIAVEWESNGQPENNYKTTPPVLDSDGSFLLYSKLTVDKSRWQQGNVFSCSVMHEALHNHYTQKSLSLSPGK chain 2: QVQLVESGGGLVQAGGSLTLSCAAPGRTFGTDVVGWFRQAPGKEREFVASISRSGDGIYYDDSVKGRFTISRNNAWNTVNLQMNSLKVEDTAVYYCAAGDGWSTYDYWGQGTQVTVSSGGGGSGGGGSGGGGSQVQLVESGGGLVQPGGSLRLSCATSGFTFRNNFMSWVRQAPGKGLEWVSTISYGGESTTYAESVKGRFTISRDNAKNTLYLQMNNLKPEDTAVYYCAKATSYDSIRSGSRGQGTQVTVSSGGGGSGGGGSGGGGSEVQLVESGGGLVQTGGSLRLSCAASGGTFSRDAMAWFRQVPGKEREFVALISWSGATTNYADSVKGRFAISRDNGKNTVYLQMNRLKPADTAIYYCAADRRPMGSRSYFEPTEYDDWGQGTQVTVSSGGGGSGGGGSGGGGSDKTHTCPPCPAPEAAGGPSVFLFPPKPKDTLMISRTPEVTCVVVDVSHEDPEVKFNWYVDGVEVHNAKTKPREEQYNSTYRVVSVLTVLHQDWLNGKEYKCKVSNKALGAPIEKTISKAKGQPREPQVYTLPPSRDELTKNQVSLTCLVKGFYPSDIAVEWESNGQPENNYKTTPPVLDSDGSFFLYSRLTVDKSRWQQGNVFSCSVMHEALHNHYTQKSLSLSPGK | 0.0401 | 0.252 pM | 6 | 14 | 86 | 159
DC00061 (other) chain 1: QVQLVESGGGLVQPGGSLRLSCATSGFTFRNNFMSWVRQAPGKGLEWVSTISYGGESTTYAESVKGRFTISRDNAKNTLYLQMNNLKPEDTAVYYCAKATSYDSIRSGSRGQGTQVTVSSGGGGSGGGGSGGGGSEVQLVESGGGLVQTGGSLRLSCAASGGTFSRDAMAWFRQVPGKEREFVALISWSGATTNYADSVKGRFAISRDNGKNTVYLQMNRLKPADTAIYYCAADRRPMGSRSYFEPTEYDDWGQGTQVTVSSGGGGSGGGGSGGGGSDKTHTCPPCPAPEAAGGPSVFLFPPKPKDTLMISRTPEVTCVVVDVSHEDPEVKFNWYVDGVEVHNAKTKPREEQYNSTYRVVSVLTVLHQDWLNGKEYKCKVSNKALGAPIEKTISKAKGQPREPQVYTLPPSRDELTKNQVSLTCLVKGFYPSDIAVEWESNGQPENNYKTTPPVLDSDGSFLLYSKLTVDKSRWQQGNVFSCSVMHEALHNHYTQKSLSLSPGK chain 2: QVQLVESGGGLVQAGGSLTLSCAAPGRTFGTDVVGWFRQAPGKEREFVASISRSGDGIYYDDSVKGRFTISRNNAWNTVNLQMNSLKVEDTAVYYCAAGDGWSTYDYWGQGTQVTVSSGGGGSGGGGSGGGGSQVQLVESGGGLVQPGGSLRLSCATSGFTFRNNFMSWVRQAPGKGLEWVSTISYGGESTTYAESVKGRFTISRDNAKNTLYLQMNNLKPEDTAVYYCAKATSYDSIRSGSRGQGTQVTVSSDKTHTCPPCPAPEAAGGPSVFLFPPKPKDTLMISRTPEVTCVVVDVSHEDPEVKFNWYVDGVEVHNAKTKPREEQYNSTYRVVSVLTVLHQDWLNGKEYKCKVSNKALGAPIEKTISKAKGQPREPQVYTLPPSRDELTKNQVSLTCLVKGFYPSDIAVEWESNGQPENNYKTTPPVLDSDGSFFLYSRLTVDKSRWQQGNVFSCSVMHEALHNHYTQKSLSLSPGK | 0.165 | 0.00427 nM | 9 | 5 | 44 | 39

Second part, the binder after the results:

EC50 (nM) pSTAT5, NK, human PBMCs [nM] | EC50 (nM) pSTAT5, Treg, human PBMCs | Fold Max signal (% pSTAT5+) Treg/NK [fold] | Max signal (% pSTAT5+), NK [% pSTAT5+] | Max signal (% pSTAT5+), Treg [% pSTAT5+] | fold EC50 NK/Treg [fold] | Binder
0.0307 | < 0.1 pM | 4 | 22 | 93 | > 307 | DC00062 (other) chain 1: EVQLVESGGGLVQTGGSLRLSCAASGGTFSRDAMAWFRQVPGKEREFVALISWSGATTNYADSVKGRFAISRDNGKNTVYLQMNRLKPADTAIYYCAADRRPMGSRSYFEPTEYDDWGQGTQVTVSSGGGGSGGGGSGGGGSQVQLVESGGGLVQPGGSLRLSCATSGFTFRNNFMSWVRQAPGKGLEWVSTISYGGESTTYAESVKGRFTISRDNAKNTLYLQMNNLKPEDTAVYYCAKATSYDSIRSGSRGQGTQVTVSSDKTHTCPPCPAPEAAGGPSVFLFPPKPKDTLMISRTPEVTCVVVDVSHEDPEVKFNWYVDGVEVHNAKTKPREEQYNSTYRVVSVLTVLHQDWLNGKEYKCKVSNKALGAPIEKTISKAKGQPREPQVYTLPPSRDELTKNQVSLTCLVKGFYPSDIAVEWESNGQPENNYKTTPPVLDSDGSFLLYSKLTVDKSRWQQGNVFSCSVMHEALHNHYTQKSLSLSPGK chain 2: EVQLVESGGGLVQTGGSLRLSCAASGGTFSRDAMAWFRQVPGKEREFVALISWSGATTNYADSVKGRFAISRDNGKNTVYLQMNRLKPADTAIYYCAADRRPMGSRSYFEPTEYDDWGQGTQVTVSSGGGGSGGGGSGGGGSQVQLVESGGGLVQPGGSLRLSCATSGFTFRNNFMSWVRQAPGKGLEWVSTISYGGESTTYAESVKGRFTISRDNAKNTLYLQMNNLKPEDTAVYYCAKATSYDSIRSGSRGQGTQVTVSSGGGGSGGGGSGGGGSQVQLVESGGGLVQAGGSLTLSCAAPGRTFGTDVVGWFRQAPGKEREFVASISRSGDGIYYDDSVKGRFTISRNNAWNTVNLQMNSLKVEDTAVYYCAAGDGWSTYDYWGQGTQVTVSSGGGGSGGGGSGGGGSDKTHTCPPCPAPEAAGGPSVFLFPPKPKDTLMISRTPEVTCVVVDVSHEDPEVKFNWYVDGVEVHNAKTKPREEQYNSTYRVVSVLTVLHQDWLNGKEYKCKVSNKALGAPIEKTISKAKGQPREPQVYTLPPSRDELTKNQVSLTCLVKGFYPSDIAVEWESNGQPENNYKTTPPVLDSDGSFFLYSRLTVDKSRWQQGNVFSCSVMHEALHNHYTQKSLSLSPGK
1.87 | 0.0025 nM | 3 | 34 | 97 | 748 | DC00058 (other) chain 1: QVQLVESGGGLVQPGGSLRLSCATSGFTFRNNFMSWVRQAPGKGLEWVSTISYGGESTTYAESVKGRFTISRDNAKNTLYLQMNNLKPEDTAVYYCAKATSYDSIRSGSRGQGTQVTVSSGGGGSGGGGSGGGGSEVQLVESGGGLVQTGGSLRLSCAASGGTFSRDAMAWFRQVPGKEREFVALISWSGATTNYADSVKGRFAISRDNGKNTVYLQMNRLKPADTAIYYCAADRRPMGSRSYFEPTEYDDWGQGTQVTVSSGGGGSGGGGSGGGGSDKTHTCPPCPAPEAAGGPSVFLFPPKPKDTLMISRTPEVTCVVVDVSHEDPEVKFNWYVDGVEVHNAKTKPREEQYNSTYRVVSVLTVLHQDWLNGKEYKCKVSNKALGAPIEKTISKAKGQPREPQVYTLPPSRDELTKNQVSLTCLVKGFYPSDIAVEWESNGQPENNYKTTPPVLDSDGSFLLYSKLTVDKSRWQQGNVFSCSVMHEALHNHYTQKSLSLSPGK chain 2: QVQLVESGGGLVQAGGSLTLSCAAPGRTFGTDVVGWFRQAPGKEREFVASISRSGDGIYYDDSVKGRFTISRNNAWNTVNLQMNSLKVEDTAVYYCAAGDGWSTYDYWGQGTQVTVSSGGGGSGGGGSGGGGSEVQLVESGGGLVQTGGSLRLSCAASGGTFSRDAMAWFRQVPGKEREFVALISWSGATTNYADSVKGRFAISRDNGKNTVYLQMNRLKPADTAIYYCAADRRPMGSRSYFEPTEYDDWGQGTQVTVSSGGGGSGGGGSGGGGSQVQLVESGGGLVQPGGSLRLSCATSGFTFRNNFMSWVRQAPGKGLEWVSTISYGGESTTYAESVKGRFTISRDNAKNTLYLQMNNLKPEDTAVYYCAKATSYDSIRSGSRGQGTQVTVSSDKTHTCPPCPAPEAAGGPSVFLFPPKPKDTLMISRTPEVTCVVVDVSHEDPEVKFNWYVDGVEVHNAKTKPREEQYNSTYRVVSVLTVLHQDWLNGKEYKCKVSNKALGAPIEKTISKAKGQPREPQVYTLPPSRDELTKNQVSLTCLVKGFYPSDIAVEWESNGQPENNYKTTPPVLDSDGSFFLYSRLTVDKSRWQQGNVFSCSVMHEALHNHYTQKSLSLSPGK
